Source: patent US20180117114A1 (INDIANA UNIVERSITY RESEARCH AND TECHNOLOGY COPORATION, published 2018)

B1: SEQ ID NO: 3, neurofibromin C-terminus peptide YLQSFGFNGLWRFAG (peptide)
peptide: YLQSFGFNGLWRFAG
notes: 15-mer on a SPOTS membrane
B2: SEQ ID NO: 1, neurofibromin C-terminus peptide RVSHGQIKQIIRILS (peptide)
peptide: RVSHGQIKQIIRILS
notes: 15-mer on a SPOTS membrane
B3: SEQ ID NO: 2, neurofibromin C-terminus peptide KGYRHPSPAIVARTV (peptide)
peptide: KGYRHPSPAIVARTV
notes: 15-mer on a SPOTS membrane

Each binder was assayed against CRMP-2 from wild-type mouse brain lysate (mouse, UniProt O08553 1-572) (assay: SPOTS array of neurofibromin 15-mers overlaid with mouse brain lysate, probed with three CRMP-2 antibodies).

Binding result, binds:
B1
B2
B3
